In article PMC6316659:

Key:
[1] = molecular target: rD4BPL2 (recombinant Bryopsis plumosa lectin 2, tetrameric tandem repeat construct) (Bryopsis plumosa)
[2] = molecular target: native BPL2 (Bryopsis plumosa mannose-binding lectin 2) (Bryopsis plumosa)

minimum concentration of fetuin that inhibits the agglutination of a 4% horse erythrocyte suspension by 4 HU lectin [1]: 12.2 µg/mL
minimum concentration of fetuin that inhibits the agglutination of a 4% horse erythrocyte suspension by 4 HU lectin [2]: 195 µg/mL
B1: bovine serum fetuin (natural protein)
chain: IPLDPVAGYKEPACDDPDTEQAALAAVDYINKHLPRGYKHTLNQIDSVKVWPRRPTGEVYDIEIDTLETTCHVLDPTPLANCSVRQQTQHAVEGDCDIHVLKQDGQFSVLFTKCDSSPDSAEDVRKLCPDCPLLAPLNDSRVVHAVEVALATFNAESNGSYLQLVEISRAQFVPLPVSVSVEFAVAATDCIAKEVVDPTKCNLLAEKQYGFCKGSVIQKALGGEDVRVTCTLFQTQPVIPQPQPDGAEAEAPSAVPDAAGPTPSAAGPPVASVVVGPSVVAVPLPLHRAHYDLRHTFSGVASVESSSGEAFHVGKTPIVGQPSIPGGPVRLCPGRIRYFKI
